According to paper PMC5865148 (Nature Communications, 2018):
Blank lines part the entries; values can stand above or below the binder they belong to.

Key:
Details in all cases: both partners purified
[1] = molecular target: T1, soluble human BAFF (aa 134-285) R231A (human, UniProt Q9Y275 134-285, R231A); assay: SPR; about 1000 RU of belimumab Fab immobilised on a CM-5 chip by amine coupling; BAFF wild type or mutant flowed at 2 to 250 nM; 20 mM sodium citrate pH 5.6, 200 mM NaCl; 25 °C; BIAcore T100; sensorgrams locally fitted; in duplicate
T1 construct: also called BAFF R231A; source: E. coli BL21 (DE3), purified as described for wild-type BAFF; not shown: His6, N-terminal, cleaved

[2] = molecular target: T2, soluble human BAFF (aa 134-285) R265A (human, UniProt Q9Y275 134-285, R265A); assay: as above
T2 construct: also called BAFF R265A; source: E. coli BL21 (DE3), purified as described for wild-type BAFF; not shown: His6, N-terminal, cleaved

[3] = molecular target: T3, soluble human BAFF (aa 134-285) Y163A (human, UniProt Q9Y275 134-285, Y163A); assay: as above
T3 construct: also called BAFF Y163A; source: E. coli BL21 (DE3), purified as described for wild-type BAFF; not shown: His6, N-terminal, cleaved

[4] = molecular target: T4, soluble human BAFF (aa 134-285) I233A (human, UniProt Q9Y275 134-285, I233A); assay: as above
T4 construct: also called BAFF I233A; source: E. coli BL21 (DE3), purified as described for wild-type BAFF; not shown: His6, N-terminal, cleaved

[5] = molecular target: T5, soluble human BAFF (aa 134-285) N242A (human, UniProt Q9Y275 134-285, N242A); assay: as above
T5 construct: also called BAFF N242A; source: E. coli BL21 (DE3), purified as described for wild-type BAFF; not shown: His6, N-terminal, cleaved

[6] = molecular target: T6, soluble human BAFF (aa 134-285) L240A (human, UniProt Q9Y275 134-285, L240A); assay: as above
T6 construct: also called BAFF L240A; source: E. coli BL21 (DE3), purified as described for wild-type BAFF; not shown: His6, N-terminal, cleaved

[7] = molecular target: T7, soluble human BAFF (aa 134-285) E266A (human, UniProt Q9Y275 134-285, E266A); assay: as above
T7 construct: also called BAFF E266A; source: E. coli BL21 (DE3), purified as described for wild-type BAFF; not shown: His6, N-terminal, cleaved

[8] = molecular target: T8, soluble human BAFF (aa 134-285) Y206A (human, UniProt Q9Y275 134-285, Y206A); assay: as above
T8 construct: also called BAFF Y206A; source: E. coli BL21 (DE3), purified as described for wild-type BAFF; not shown: His6, N-terminal, cleaved

[9] = molecular target: T9, soluble human BAFF (aa 134-285) L224A (human, UniProt Q9Y275 134-285, L224A); assay: as above
T9 construct: also called BAFF L224A; source: E. coli BL21 (DE3), purified as described for wild-type BAFF; not shown: His6, N-terminal, cleaved

[10] = molecular target: T10, soluble human BAFF (aa 134-285) D222A (human, UniProt Q9Y275 134-285, D222A); assay: as above
T10 construct: also called BAFF D222A; source: E. coli BL21 (DE3), purified as described for wild-type BAFF; not shown: His6, N-terminal, cleaved

[11] = molecular target: T11, soluble form of human BAFF (aa 134–285) (human, UniProt Q9Y275); assay: SEC; analytical gel filtration, Superdex 200 Increase 10/300 GL, 20 mM HEPES pH 7.0, 200 mM NaCl; BAFF alone, Fab alone, and BAFF incubated 1 h with an excess of Fab
T11 construct: Cloned in pET-28a; On gel filtration it runs as trimer and as 60-mer (20 trimers); the trimer fractions were collected; also called BLyS; source: E. coli BL21 (DE3), purified (HisTrap, thrombin cleavage, gel filtration; trimer fractions collected); not shown: His6, N-terminal, cleaved

- Kd [1]: 2.85 nM
- koff [1]: 0.000128 s⁻¹
- kon [1]: 45000 M⁻¹ s⁻¹
- Kd [2]: 3.79 nM
- koff [2]: 5.59e-05 s⁻¹
- kon [2]: 14800 M⁻¹ s⁻¹
- Kd [3]: 1.45 nM
- koff [3]: 0.000137 s⁻¹
- kon [3]: 94400 M⁻¹ s⁻¹
- Kd [4]: 2.64 nM
- koff [4]: 0.000328 s⁻¹
- kon [4]: 124000 M⁻¹ s⁻¹
- Kd [5]: 1.22 nM
- koff [5]: 0.000167 s⁻¹
- kon [5]: 137000 M⁻¹ s⁻¹
- Kd [6]: 1.45 nM
- koff [6]: 0.000145 s⁻¹
- kon [6]: 101000 M⁻¹ s⁻¹
- Kd [7]: 2.34 nM
- koff [7]: 0.000245 s⁻¹
- kon [7]: 105000 M⁻¹ s⁻¹
- Kd [8]: 14.1 nM
- koff [8]: 0.00783 s⁻¹
- kon [8]: 556000 M⁻¹ s⁻¹
- Kd [9]: 7.77 nM
- koff [9]: 0.00119 s⁻¹
- kon [9]: 153000 M⁻¹ s⁻¹
- Kd [10]: 4.34 nM
- koff [10]: 0.000357 s⁻¹
- kon [10]: 82200 M⁻¹ s⁻¹
B1: belimumab Fab (Fab, V domains shown)
VH: QVQLQQSGAEVKKPGSSVRVSCKASGGTFNNNAINWVRQAPGQGLEWMGGIIPMFGTAKYSQNFQGRVAITADESTGTASMELSSLRSEDTAVYYCARSRDLLLFPHHALSPWGRGTMVTVSS
VL: SSELTQDPAVSVALGQTVRVTCQGDSLRSYYASWYQQKPGQAPVLVIYGKNNRPSGIPDRFSGSSSGNTASLTITGAQAEDEADYYCSSRDSSGNHWVFGGGTELTVLG
notes: followed by HHHHHH (the tag); Fab of a fully human IgG1 lambda antibody; also called belimumab Fab fragment; Benlysta Fab; source: E. coli Top10F, periplasmic expression, purified (HisTrap, gel filtration)

- stoichiometry N [11]: 1 BAFF protomer per Fab (printed 3:3)
B2: belimumab Fab (Fab, V domains shown)
VH: QVQLQQSGAEVKKPGSSVRVSCKASGGTFNNNAINWVRQAPGQGLEWMGGIIPMFGTAKYSQNFQGRVAITADESTGTASMELSSLRSEDTAVYYCARSRDLLLFPHHALSPWGRGTMVTVSS
VL: SSELTQDPAVSVALGQTVRVTCQGDSLRSYYASWYQQKPGQAPVLVIYGKNNRPSGIPDRFSGSSSGNTASLTITGAQAEDEADYYCSSRDSSGNHWVFGGGTELTVL
notes: heavy chain of the Fab of belimumab (fully human IgG1 lambda); in the deposited structures PDB 5Y9J and 5Y9K; lambda light chain of belimumab; also called Benlysta; belimumab Fab fragment; source: E. coli Top10F, periplasmic expression, purified (HisTrap, gel filtration)
